From paper PMC4011729, “Inhibiting Heat Shock Factor 1 in Human Cancer Cells with a Potent RNA Aptamer”

Columns and labels:
HSF1 = HSF1 (Homo sapiens, UniProt Q00613 1-529); assay: EMSA; apparent Kd, n = 5; 1 nM RNA; EMSA: 1X binding buffer (composition not given), 1 µg yeast RNA, 4 µg BSA, 5 mM DTT, 10% glycerol, 6 U SUPERase-In in 10 µl; room temperature 30 min then 4 C 10 min; 6-9% native gel, 1/4 TBE, 1 mM MgCl2, 4 C; pH not stated; settings: protein: recombinant; tags: His; label: internal 32P-UTP; two aptamer units, 5' and 3' ends protected
HSF2 = HSF2 (Homo sapiens, UniProt Q03933 1-536); assay: EMSA; apparent affinity from % shifted complex; 1 nM RNA; EMSA: 1X binding buffer (composition not given), 1 µg yeast RNA, 4 µg BSA, 5 mM DTT, 10% glycerol, 6 U SUPERase-In in 10 µl; room temperature 30 min then 4 C 10 min; 6-9% native gel, 1/4 TBE, 1 mM MgCl2, 4 C; pH not stated; settings: protein: recombinant; tags: His; label: internal 32P-UTP; two aptamer units, 5' and 3' ends protected
Chain of HSF2 (Q03933 whole entry): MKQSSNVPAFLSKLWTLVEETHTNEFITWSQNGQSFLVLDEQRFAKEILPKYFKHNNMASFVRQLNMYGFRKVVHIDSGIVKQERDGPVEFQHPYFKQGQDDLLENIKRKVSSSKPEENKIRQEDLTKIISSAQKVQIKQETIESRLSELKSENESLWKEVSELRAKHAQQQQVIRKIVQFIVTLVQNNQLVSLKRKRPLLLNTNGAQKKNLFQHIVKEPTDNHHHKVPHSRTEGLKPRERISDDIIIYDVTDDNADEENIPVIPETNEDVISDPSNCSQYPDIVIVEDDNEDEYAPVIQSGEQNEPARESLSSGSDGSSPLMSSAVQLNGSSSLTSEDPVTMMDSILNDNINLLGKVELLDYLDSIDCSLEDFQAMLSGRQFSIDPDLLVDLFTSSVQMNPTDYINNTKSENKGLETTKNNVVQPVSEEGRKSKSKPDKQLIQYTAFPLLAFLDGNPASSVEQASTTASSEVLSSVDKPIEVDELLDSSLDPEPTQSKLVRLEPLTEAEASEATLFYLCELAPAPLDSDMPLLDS

Chain of HSF1 (Q00613 whole entry): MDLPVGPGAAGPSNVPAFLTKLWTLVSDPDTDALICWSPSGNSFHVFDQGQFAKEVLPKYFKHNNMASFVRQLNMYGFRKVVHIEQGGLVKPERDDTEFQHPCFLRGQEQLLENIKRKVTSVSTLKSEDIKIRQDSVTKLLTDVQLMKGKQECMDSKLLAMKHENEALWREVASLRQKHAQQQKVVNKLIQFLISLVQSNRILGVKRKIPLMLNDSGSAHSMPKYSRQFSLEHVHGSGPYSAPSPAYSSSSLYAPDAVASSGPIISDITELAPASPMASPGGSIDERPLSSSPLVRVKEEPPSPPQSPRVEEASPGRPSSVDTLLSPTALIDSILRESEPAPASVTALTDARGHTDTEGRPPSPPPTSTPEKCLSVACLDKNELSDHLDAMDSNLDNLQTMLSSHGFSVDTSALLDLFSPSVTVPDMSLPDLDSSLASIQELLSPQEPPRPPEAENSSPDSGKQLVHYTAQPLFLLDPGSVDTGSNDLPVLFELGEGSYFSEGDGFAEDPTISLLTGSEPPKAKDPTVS

B1: iaRNAHSF1 (structured_RNA)
RNA: GUCGAGUGACGUUGGCAUCGCGAUACAAAAUUAAGUUGAACGCGAGUUCUUCGGAAUUCAACUGCCUUCGUCAUACUCCUUGAAUUCAACUGCCUUCGGGCAUCGCGAUACAAAAUUAAGUUGAACGCGAGUUCUUGGAGGCUCGACGUCUAGCGAUGUGGUUUCGCUACUGAUGAGUCCGUGAGGACGAAAC
B1 showed a Kd (HSF1) of about 25 nM and a Kd (HSF2) of about 141 nM.
